Assay results: patent publication US20260193335A1 (ZOETIS SERVICES, published 2026)
Changes are numbered by the printed parent chain. Names may count otherwise.

B1: mAb4 (felinized anti-IL31 antibody ZTS-5864) S428M and S434F, feline IgG1a (antibody)
heavy: DVQLVESGGDLVKPGGSLRLTCVASGFTFSDYAMSWVRQAPGKGLQWVAGIDSVGSGTSYADSVKGRFTISRDNAKNTLYLQMNSLKTEDTATYYCASGFPGSFEHWGQGTLVTVSSASTTAPSVFPLAPSCGTTSGATVALACLVLGYFPEPVTVSWNSGALTSGVHTFPAVLQASGLYSLSSMVTVPSSRWLSDTFTCNVAHPPSNTKVDKTVRKTDHPPGPKPCDCPKCPPPEMLGGPSIFIFPPKPKDTLSISRTPEVTCLVVDLGPDDSDVQITWFVDNTQVYTAKTSPREEQFNSTYRVVSVLPILHQDWLKGKEFKCKVNSKSLPSPIERTISKAKGQPHEPQVYVLPPAQEELSRNKVSVTCLIKSFHPPDIAVEWEITGQPEPENNYRTTPPQLDSDGTYFVYSKLSVDRSHWQRGNTYTCSVMHEALHFHHTQKSLTQSPGK
VL: QSVLTQPSSVSGTLGQRITISCTGSSSNIGSGYVGWYQQVPGMGPKTVIYYNSDRPSGVPDRFSGSKSGSSGTLTITGLQAEDEADYYCSVYDRTFNAVFGGGT
notes: also called mAb4 ID No. 33
B2: mAb4 (felinized anti-IL31 antibody ZTS-5864) S428M and S434W, feline IgG1a (antibody)
heavy: B1 heavy with F439W
VL: B1 VL
notes: also called mAb4 ID No. 36
B3: mAb4 (felinized anti-IL31 antibody ZTS-5864) S428Y and S434W, feline IgG1a (antibody)
heavy: B1 heavy with M433Y, F439W
VL: B1 VL
notes: also called mAb4 ID No. 31
B4: mAb2 (felinized anti-NGF antibody) wild-type, feline IgG1a (antibody, part only; not given: Anti-NGF heavy and light variable domains, part only)
heavy, part: ASTTAPSVFPLAPSCGTTSGATVALACLVLGYFPEPVTVSWNSGALTSGVHTFPAVLQASGLYSLSSMVTVPSSRWLSDTFTCNVAHPPSNTKVDKTVRKTDHPPGPKPCDCPKCPPPEMLGGPSIFIFPPKPKDTLSISRTPEVTCLVVDLGPDDSDVQITWFVDNTQVYTAKTSPREEQFNSTYRVVSVLPILHQDWLKGKEFKCKVNSKSLPSPIERTISKAKGQPHEPQVYVLPPAQEELSRNKVSVTCLIKSFHPPDIAVEWEITGQPEPENNYRTTPPQLDSDGTYFVYSKLSVDRSHWQRGNTYTCSVSHEALHSHHTQKSLTQSPGK
B5: mAb2 (felinized anti-NGF antibody) S428L, feline IgG1a (antibody, part only; not given: Anti-NGF heavy and light variable domains, part only)
heavy, part: B4 heavy, part with S316L
B6: mAb1 (felinized anti-IL31 antibody) S428L, feline IgG1a (antibody, part only; not given: Anti-IL31 heavy and light variable domains, part only)
heavy, part: B4 heavy, part with S316L
B7: mAb1 (felinized anti-IL31 antibody) wild-type, feline IgG1a (antibody, part only; not given: Anti-IL31 heavy and light variable domains, part only)
heavy, part: B4 heavy, part
B8: mAb4 (felinized anti-IL31 antibody ZTS-5864) WT, feline IgG1a (antibody)
heavy: B1 heavy with M433S, F439S
VL: B1 VL
notes: The same holds for all mAb4 variants; also called mAb4 ID No. 1
B9: mAb4 (felinized anti-IL31 antibody ZTS-5864) S434H, feline IgG1a (antibody)
heavy: B1 heavy with M433S, F439H
VL: B1 VL
notes: also called mAb4 ID No. 00
B10: mAb4 (felinized anti-IL31 antibody ZTS-5864) S428L, feline IgG1a (antibody)
heavy: B1 heavy with M433L, F439S
VL: B1 VL
notes: also called mAb4 ID No. 11
B11: Anti-NGF antibody of Table 3, S434G (antibody)
heavy: DVQLVESGGDLVKPGGSLRLTCVASGFTYSNYWMHWVRQAPGKGLQWVARIDPYGGGTKHNEKFKRRFTISRDNAKNTLYLQMNSLKTEDTATYYCVRSGYDYYFDVWGQGTLVTVSSASTTAPSVFPLAPSCGTTSGATVALACLVLGYFPEPVTVSWNSGALTSGVHTFPAVLQASGLYSLSSMVTVPSSRWLSDTFTCNVAHPPSNTKVDKTVRKTDHPPGPKPCDCPKCPPPEMLGGPSIFIFPPKPKDTLSISRTPEVTCLVVDLGPDDSDVQITWFVDNTQVYTAKTSPREEQFNSTYRVVSVLPILHQDWLKGKEFKCKVNSKSLPSPIERTISKAKGQPHEPQVYVLPPAQEELSRNKVSVTCLIKSFHPPDIAVEWEITGQPEPENNYRTTPPQLDSDGTYFVYSKLSVDRSHWQRGNTYTCSVSHEALHGHHTQKSLTQSPGK
light: EIQMTQSPSSLSASPGDRVTITCRASENIYSFLAWYQQKPGKVPKLLIYNANTLAEGVPSRFSGSGSGTDFTLTISSLEPEDAATYYCQHHFGTPFTFGSGTKLEIKRSDAQPSVFLFQPSLDELHTGSASIVCILNDFYPKEVNVKWKVDGVVQNKGIQESTTEQNSKDSTYSLSSTLTMSSTEYQSHEKFSCEVTHKSLASTLVKSFQRSECQRE
B12: Anti-NGF antibody of Table 3, S434N (antibody)
heavy: B11 heavy with G440N
light: B11 light
B13: Anti-NGF antibody of Table 3, S434Q (antibody)
heavy: B11 heavy with G440Q
light: B11 light
B14: Anti-NGF antibody of Table 3, S434K (antibody)
heavy: B11 heavy with G440K
light: B11 light
B15: Anti-NGF antibody of Table 3, S434L (antibody)
heavy: B11 heavy with G440L
light: B11 light
B16: Anti-NGF antibody of Table 3, S434P (antibody)
heavy: B11 heavy with G440P
light: B11 light
B17: Anti-NGF antibody of Table 3, S434M (antibody)
heavy: B11 heavy with G440M
light: B11 light
B18: Anti-NGF antibody of Table 3, S434I (antibody)
heavy: B11 heavy with G440I
light: B11 light
B19: mAb4 (felinized anti-IL31 antibody ZTS-5864) S428Q, feline IgG1a (antibody)
heavy: B1 heavy with M433Q, F439S
VL: B1 VL
notes: also called mAb4 ID No. 15
B20: mAb4 (felinized anti-IL31 antibody ZTS-5864) S428P, feline IgG1a (antibody)
heavy: B1 heavy with M433P, F439S
VL: B1 VL
notes: also called mAb4 ID No. 14
B21: mAb4 (felinized anti-IL31 antibody ZTS-5864) S428T, feline IgG1a (antibody)
heavy: B1 heavy with M433T, F439S
VL: B1 VL
notes: also called mAb4 ID No. 17
B22: mAb4 (felinized anti-IL31 antibody ZTS-5864) S428R, feline IgG1a (antibody)
heavy: B1 heavy with M433R, F439S
VL: B1 VL
notes: also called mAb4 ID No. 16
B23: mAb4 (felinized anti-IL31 antibody ZTS-5864) S428W, feline IgG1a (antibody)
heavy: B1 heavy with M433W, F439S
VL: B1 VL
notes: also called mAb4 ID No. 19

What follows are binders tested against T1, Feline FcRn (complex of FcRn-α subunit and β-microglobulin, C-terminal His tag) (feline, UniProt A0ABI7ZNY9 23-296; Q5MGS7 21-118) (assay: SPR Biacore, biotin-FcRn on SA chip, pH 6).
T1 construct: treated here as one molecule
Procedure: (§1) Feline FcRn was isolated, prepared and mutant Fc IgGs were assayed against feline FcRn according to Strietzel et. al., discussed above. Standard PCR was used to amplify feline FcRn-α subunit and β-microglobulin. FcRn-α subunit and β-microglobulin were co-transfected into HEK 293 cells and the FcRn complex was purified by IMAC affinity purification via the c-terminal His tag. FcRn complex was biotin labeled through BirA enzymatic biotinylatoin reaction. KD's were measured by Biacore T200 (GE Healthcare, Pittsburgh, PA, USA) or Biacore 8K (Cytiva, Marlborough, MA, USA) using a SA sensor chip.
(§2) FcRn was captured on the surface of the sensor using a modified SA capture method. 10 mM MES; 150 mM NaCl; 0.005% Tween20; 0.5 mg/mL BSA; pH6 was used as capture, method running buffer and titrations. 1×HBS-P, 0.5 mg/mL BSA; pH7.4 was also used for method running buffer and titrations. Fc mutant IgGs were flowed over receptor surfaces and affinity was determined using T200 evaluation software or Biacore Insight Evaluation software. Blank runs containing buffer only were subtracted out from all runs. Flow cells were regenerated using 50 mM Tris pH8 or pH9. Runs were performed at 15° C.

Kd [nM] | Binder
4.29 | B1
6.83 | B2
7.8 | B3

Each binder was assayed against NGF (target of felinized anti-NGF antibodies mAb2 and mAb3) (assay: cell-based or functional assay).

IC50 (cell based potency assay) [nM] | Binder
0.69 | B4
0.58 | B5

These binders were tested against Feline FcRn (complex of FcRn-α subunit and β-microglobulin, C-terminal His tag) (feline) (assay: SPR Biacore, FcRn amine-coupled on CM5, pH 6).
Sequence of Feline FcRn (complex of FcRn-α subunit and β-microglobulin, C-terminal His tag) (feline) (chain, as listed by the source, chain 1 of 2): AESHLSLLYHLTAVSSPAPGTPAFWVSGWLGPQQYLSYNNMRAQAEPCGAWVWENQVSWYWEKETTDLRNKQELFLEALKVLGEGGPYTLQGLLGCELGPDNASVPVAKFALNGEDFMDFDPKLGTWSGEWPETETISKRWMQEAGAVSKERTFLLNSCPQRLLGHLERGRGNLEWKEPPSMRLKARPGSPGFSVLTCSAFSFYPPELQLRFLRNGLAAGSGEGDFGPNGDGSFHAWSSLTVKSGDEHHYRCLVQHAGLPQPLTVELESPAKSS
Sequence of Feline FcRn (complex of FcRn-α subunit and β-microglobulin, C-terminal His tag) (feline) (Q5MGS7 21-118, chain 2 of 2): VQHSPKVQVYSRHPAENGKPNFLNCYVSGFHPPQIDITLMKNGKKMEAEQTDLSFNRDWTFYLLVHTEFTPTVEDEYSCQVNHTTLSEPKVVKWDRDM

Kd [nM] | Binder
25 | B4
3.77 | B6
12.1 | B7
1.51 | B5

What follows are binders tested against Feline FcRn (complex of FcRn-α subunit and β-microglobulin, C-terminal His tag) (feline) (assay: SPR Biacore, FcRn amine-coupled on CM5, pH 7.2).

Kd [nM] | Binder
380 | B4
180 | B6
60 | B5

Each binder was assayed against T1, Feline FcRn (complex of FcRn-α subunit …) (assay: SPR Biacore, biotin-FcRn on SA chip, pH 6; pH 6).
Procedure: as §1, §2

Kd [nM] | Binder
32 | B8
4.88 | B9
15.5 | B10

The binders below were run against NGF (target of felinized anti-NGF antibodies mAb2 and mAb3) (assay: SPR Biacore T200, target amine-coupled, 15 C).

Kd [nM] | Binder
0.023 | B4
0.008 | B5

Each binder was assayed against IL31 (target of felinized anti-IL31 antibody mAb1) (assay: SPR Biacore T200, target amine-coupled, 15 C).

Kd [nM] | Binder
0.0228 | B6
0.0223 | B7

These binders were tested against T1, Feline FcRn (complex of FcRn-α subunit …) (assay: SPR Biacore, FcRn amine-coupled on CM5, pH 6).
Procedure: (§3) Feline FcRn was isolated, prepared and mutant Fc IgGs were assayed against feline FcRn according to Strietzelg et. al. Standard RACE PCR was used to amplify feline FcRn-α subunit and β-microglobulin. FcRn-α subunit and β-microglobulin were co-transfected into HEK 293 cells and the FcRn complex was purified by IMAC affinity purification via the c-terminal His tag. KD's were measured by Biacore 3000 or Biacore T200 (GE Healthcare, Pittsburgh, PA, USA) using a CM5 sensor chip.
(§4) FcRn was immobilized on the surface of the sensor using the standard amine immobilization method to reach the desired surface density. HBS-EP was used as the immobilization running buffer and 10 mM MES; 150 mM NaCl; 0.005% Tween20; 0.5 mg/mL BSA; pH6 and pH7.2 and PBS; 0.005% Tween20; 0.5 mg/mL BSA; pH7.4 were used for method running buffers and titrations. Fc mutant IgGs were flowed over receptor surfaces and affinity was determined using Scrubber2 software analysis (BioLogic Software Pty, Ltd., Campbell, Australia) or T200 evaluation software (Table 2). Blank runs containing buffer only were subtracted out from all runs. Flow cells were regenerated using 50 mM Tris pH8. Runs were performed at 15° C.

Kd [nM] | Binder
9.58 | B11
6.94 | B12
4.8 | B13
6.76 | B14
8.67 | B15
5.64 | B16
2.8 | B17
14.4 | B18

What follows are binders tested against T1, Feline FcRn (complex of FcRn-α subunit …) (assay: SPR Biacore, FcRn amine-coupled on CM5, pH 7.2).
Procedure: as §3, §4

Kd [nM] | Binder
21.6 | B11
0.00847 | B12
0.0801 | B13
5.06 | B14
6.57 | B15
0.0157 | B16
1.92 | B17
18.1 | B18

What follows are binders tested against T1, Feline FcRn (complex of FcRn-α subunit …) (assay: SPR Biacore, biotin-FcRn on SA chip, pH 7.4).
Procedure: as §1, §2

Kd [µM] | binding result | Binder
4.01 |  | B1
 | no binding | B19
 | no binding | B20
 | no binding | B21
 | no binding | B22
5.01 |  | B2
0.431 |  | B3
 | no binding | B23
